Tests used:
[1] = molecular target: TNF receptors on WEHI-164 cells (mouse); experiment: radioreceptor assay, cold TNF 0 ng/tube
[2] = molecular target: TNF receptors on WEHI-164 cells (mouse); experiment: radioreceptor assay, cold TNF 1 ng/tube
[3] = molecular target: TNF receptors on WEHI-164 cells (mouse); experiment: radioreceptor assay, cold TNF 10 ng/tube
[4] = molecular target: TNF receptors on WEHI-164 cells (mouse); experiment: radioreceptor assay, cold TNF 100 ng/tube
[5] = molecular target: TNF receptors on WEHI-164 cells (mouse); experiment: radioreceptor assay, cold TNF 500 ng/tube
[6] = molecular target: TNF receptors on WEHI-164 cells (mouse); experiment: radioreceptor assay, cold TNF 1,000 ng/tube
[7] = molecular target: TNF receptors on WEHI-164 cells (mouse); experiment: radioreceptor assay, cold TNF 5,000 ng/tube
[8] = molecular target: TNF receptors on WEHI-164 cells (mouse); experiment: radioreceptor assay, cold TNF 10,000 ng/tube

Chain of TNF receptors on WEHI-164 cells (mouse) (P25118 30-454): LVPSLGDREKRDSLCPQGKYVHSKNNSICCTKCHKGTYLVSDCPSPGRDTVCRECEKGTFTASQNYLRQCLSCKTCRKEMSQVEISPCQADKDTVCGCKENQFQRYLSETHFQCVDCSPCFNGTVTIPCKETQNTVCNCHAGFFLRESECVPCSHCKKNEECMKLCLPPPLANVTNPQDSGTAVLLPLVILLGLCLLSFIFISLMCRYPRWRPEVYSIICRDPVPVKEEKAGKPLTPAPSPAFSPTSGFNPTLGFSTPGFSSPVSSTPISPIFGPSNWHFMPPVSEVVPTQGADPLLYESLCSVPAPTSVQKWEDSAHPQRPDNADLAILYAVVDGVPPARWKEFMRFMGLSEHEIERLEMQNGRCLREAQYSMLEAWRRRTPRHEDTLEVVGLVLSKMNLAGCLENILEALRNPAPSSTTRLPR

% SPECIFIC BINDING (of 125I TNF to WEHI-164 cells) [1]: 100%
% SPECIFIC BINDING (of 125I TNF to WEHI-164 cells) [2]: 108%
% SPECIFIC BINDING (of 125I TNF to WEHI-164 cells) [3]: 64%
% SPECIFIC BINDING (of 125I TNF to WEHI-164 cells) [4]: 11%
% SPECIFIC BINDING (of 125I TNF to WEHI-164 cells) [5]: 10%
% SPECIFIC BINDING (of 125I TNF to WEHI-164 cells) [6]: 0%
% SPECIFIC BINDING (of 125I TNF to WEHI-164 cells) [7]: 0%
% SPECIFIC BINDING (of 125I TNF to WEHI-164 cells) [8]: 0%
Substance: human recombinant TNF alpha (from UniProt P01375 1-233) (ligand)
